Measurements published in PMC4874493.

Experiments:
APOBEC3A E72A/C171A = APOBEC3A E72A/C171A (human, UniProt P31941 1-199, E72A;C171A); assay: fluorescence anisotropy
APOBEC3A E72Q = APOBEC3A E72Q (human, UniProt P31941 1-199, E72Q); assay: fluorescence anisotropy
APOBEC3A E72Q, sequence (P31941 whole entry E72Q): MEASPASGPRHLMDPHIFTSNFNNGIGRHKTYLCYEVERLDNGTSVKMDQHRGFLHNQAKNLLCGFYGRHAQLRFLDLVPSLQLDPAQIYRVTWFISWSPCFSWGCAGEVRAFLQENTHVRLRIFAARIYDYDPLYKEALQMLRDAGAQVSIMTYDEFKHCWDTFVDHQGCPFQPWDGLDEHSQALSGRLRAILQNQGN

APOBEC3A E72A/C171A, sequence (P31941 whole entry E72A/C171A): as the sequence (P31941 whole entry E72Q) above, with Q72A, C171A counted along it

**Q.** TTTTTTTTTTTTTTT (ssDNA) [polyT (TTT)] was tested. Which Kd (APOBEC3A E72A/C171A) did it give?
**A.** 502 ± 27 nM

**Q.** And the Kd (APOBEC3A E72Q)?
**A.** 205 ± 20 nM
